Measurements from article PMC7308506 (2020).

Columns and labels:
[1] = biological target: T1, activated factor XII; assay: SPR
T1 chain 1: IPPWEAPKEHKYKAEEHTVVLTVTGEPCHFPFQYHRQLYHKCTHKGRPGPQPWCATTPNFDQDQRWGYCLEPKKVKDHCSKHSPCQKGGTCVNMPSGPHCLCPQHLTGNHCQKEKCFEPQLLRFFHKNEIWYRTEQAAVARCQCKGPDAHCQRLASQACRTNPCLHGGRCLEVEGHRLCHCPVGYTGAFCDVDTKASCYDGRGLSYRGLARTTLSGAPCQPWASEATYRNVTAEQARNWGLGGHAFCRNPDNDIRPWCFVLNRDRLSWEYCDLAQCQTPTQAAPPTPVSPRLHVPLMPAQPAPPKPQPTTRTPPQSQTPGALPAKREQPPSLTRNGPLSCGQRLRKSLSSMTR
T1 chain 2: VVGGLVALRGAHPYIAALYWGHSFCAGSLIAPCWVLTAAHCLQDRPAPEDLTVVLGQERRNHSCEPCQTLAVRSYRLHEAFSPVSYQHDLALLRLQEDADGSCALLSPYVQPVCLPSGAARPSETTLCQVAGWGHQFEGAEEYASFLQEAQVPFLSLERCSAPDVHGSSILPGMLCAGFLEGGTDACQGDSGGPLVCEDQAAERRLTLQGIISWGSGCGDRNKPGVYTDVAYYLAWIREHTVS

[2] = biological target: kallikrein; assay: SPR

B1: LCTX-F2 (peptide)
chain: GAKACTPRLHDCSHDRHSCCRGELFKDVCYCFYPEGEDKTEVCSCQQPKSHKYIEKVVDKTKTLVG
Kd [1]: 7.2 nM
Kd [2]: 4.6 nM
